In article PMC4761961, “In silico selection of an aptamer to estrogen receptor alpha using computational docking employing estrogen response elements as aptamer-alike molecules”:

Assays:
[1] = target: T1, Estrogen receptor alpha (ERα) (human, UniProt P03372 1-595); assay: ITC; ITC: 10 mM Tris-HCl pH 8.0, 25 °C, 1 µM ERα in cell, 10 µM RNA in syringe; ELISA: 100 nM biotinylated ERaptR4, 2 h; western blot: 1 µM ERaptR4; details: chain copies: 2; hairpin
[2] = target: T1, Estrogen receptor alpha (ERα); assay: as above; details: chain copies: 2; hairpin; remark: listed apart in the source

T1 sequence (P03372 whole entry): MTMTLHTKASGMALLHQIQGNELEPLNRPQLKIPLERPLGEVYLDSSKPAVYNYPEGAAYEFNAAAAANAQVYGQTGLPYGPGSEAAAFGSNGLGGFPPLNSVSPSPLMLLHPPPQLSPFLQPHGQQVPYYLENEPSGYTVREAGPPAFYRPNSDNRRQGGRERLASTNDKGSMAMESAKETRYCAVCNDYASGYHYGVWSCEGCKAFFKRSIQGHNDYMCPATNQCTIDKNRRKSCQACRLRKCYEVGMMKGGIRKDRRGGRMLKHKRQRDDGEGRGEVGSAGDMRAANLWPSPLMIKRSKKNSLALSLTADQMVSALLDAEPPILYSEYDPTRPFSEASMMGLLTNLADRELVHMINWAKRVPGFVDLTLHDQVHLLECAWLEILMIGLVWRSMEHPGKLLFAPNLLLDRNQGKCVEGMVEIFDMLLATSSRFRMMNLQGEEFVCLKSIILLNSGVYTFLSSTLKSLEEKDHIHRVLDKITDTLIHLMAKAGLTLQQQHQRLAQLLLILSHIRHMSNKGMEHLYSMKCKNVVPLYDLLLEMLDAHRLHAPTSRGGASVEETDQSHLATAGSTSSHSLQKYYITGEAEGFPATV

Binder	Ka [1]	Ka [2]
CCAGGUCACAGUGACCUG (structured_RNA) [ERaptR2]	7.6e+07 M⁻¹	
GAGGUCACUGAGACCAU (structured_RNA) [ERaptR1]	9.2e+07 M⁻¹	
AAGGUCACGGUGGCCAC (structured_RNA) [ERaptR5]	6.82e+07 M⁻¹	
UUGGUCAGGCUGAUCUC (structured_RNA) [ERaptR16]	9.4e+07 M⁻¹	
AGGGUCAGGGCCACCUG (structured_RNA) [ERaptR3]	5.24e+07 M⁻¹	
GGGGUCAGCUGUGCCCCG (structured_RNA) [ERaptR18]	9.91e+07 M⁻¹	
GCGGUCACCGUCACCUC (structured_RNA) [ERaptR15]	9.25e+07 M⁻¹	
UGGUCAGGCUGGUCUCA (structured_RNA) [ERaptR9]	9.46e+07 M⁻¹	
UUGGUCAAGCUGCCCUC (structured_RNA) [ERaptR17]	1.26e+08 M⁻¹	
GGGGUCAAGGUGACCCC (structured_RNA) [ERaptR4]		1.02e+08 M⁻¹
CGGGUCAGGGUGACCUC (structured_RNA) [ERaptR8]	8.88e+07 M⁻¹	
CCAGUCAGUCUGAUUAU (structured_RNA) [ERaptR14]	7.42e+07 M⁻¹	
UAGGUCAGUAAGACCUC (structured_RNA) [ERaptR6]	9.46e+07 M⁻¹	
CAGGUCAAGGCGAUCUU (structured_RNA) [ERaptR13]	8.96e+07 M⁻¹	
GGGGUCAAGGUCACCGC (structured_RNA) [ERaptR12]	8.2e+07 M⁻¹	
CGGGUCACGAUGCCCUA (structured_RNA) [ERaptR7]	4.82e+07 M⁻¹	
AGGGUCAUGGUGACCCU (structured_RNA) [ERaptR11]	8.02e+07 M⁻¹	
